Like-named read-outs stand apart in the source and are kept apart here.
Tests used:
[1] = biological target: WT-nsp5_(BA.1), SARS-CoV-2 nsp5 protease of the Omicron (BA.1) strain (SARS-CoV-2 (Omicron BA.1)); experiment: SEC-MALS
[2] = biological target: WT-nsp5_(BA.1), SARS-CoV-2 nsp5 protease of the Omicron (BA.1) strain (SARS-CoV-2 (Omicron BA.1)); experiment: SEC-MALS; remark: listed apart in the source

## WT-nsp5_(BA.1), SARS-CoV-2 nsp5 protease of the Omicron (BA.1) strain (enzyme)
[1]
  percent dimeric: 72%
  stoichiometry N: 2
[2]
  percent dimeric: 64%

Source: article PMC12143351
